{"source": "patent US20080095778A1", "about": "“Treatment Of Fungal Infections” (priority 2004, published 2008)", "key": {"A. flavus": {"test_system": "A. flavus", "test": "Broth microdilution (NCCLS M38-A) checkerboard assay, A. flavus", "type": "cell-based", "conditions": "for FIC: MIC in combination divided by MIC alone", "protocol": "(§1) Stock solutions of amphotericin B (AMB, Sigma), caspofungin (Caspo), voriconazole (VOR) and itraconazole (ITZ) were prepared according to the National Committee for Clinical Laboratory Standards (M38-A) in RPMI 1640 with glutamine broth medium, buffered to pH 7.0 with […] morpholinopropanesulphonic acid (MOPS). AMB stock solutions were prepared as a 100× series in 100% dimethyl sulfoxide (DMSO) and diluted in medium to a concentration range of 0.03125 to 16 μg/ml. Caspofungin, voriconazole and itraconazole were tested at a concentration range of 0.03125 to 1024 μg/ml, and Mycograb® (NeuTec Pharma plc) at a concentration range of 0.25 to 1024 μg/ml.\n(§2) Clinical isolates of Aspergillus fumigatus (2), A. flavus (1), A. terreus (1) and A. niger (1) were obtained from the Department on Microbiology, Manchester Royal Infirmary, Manchester, UK.\n(§3) An inoculum suspension was prepared in buffered RPMI with glutamine medium by probing colonies from a 7 day old Sabouraud plate. The suspension was adjusted to 0.09-0.11 (80% to 82% transmittance) for Aspergillus species, 0.15-0.17 (68% to 70% transmittance). The inoculum was diluted a further 1:2 when added to the antifungal agents in the assay (final inoculum (0.4×10^4 to 0.5×10^4). For AMB and Mycograb®, either alone or in combination, the endpoint was determined as the concentration to produce no growth (MIC-0). Microtitre plates were incubated at 37° C. without agitation for 48 hours for Aspergillus species. For caspofungin, voriconazole and itraconazole, either alone or in combination with Mycograb® antibody, the MIC endpoint was determined as the concentration resulting in a prominent decrease in turbidity (≧50% growth inhibition, MIC-2) compared to the growth control (Keele et al. 2001; Espinel-Ingroff 2003). The final inhibitory concentration (FIC) was calculated for each drug by dividing the MIC in the presence of the second drug by the MIC in its absence. For each combination, two fractions were produced which were summated to produce the fractional final inhibitory concentration. Synergy was defined by value of ≦0.5, indifference was defined by a value of >0.5 to <4.0, and antagonism was defined by a value of ≧4.0 (Matthews et al., 2003)."}, "A. terreus": {"test_system": "A. terreus", "test": "Broth microdilution (NCCLS M38-A) checkerboard assay, A. terreus", "type": "cell-based", "conditions": "for FIC: MIC in combination divided by MIC alone", "protocol": "as §1, §2, §3"}, "A. fumigatus": {"test_system": "A. fumigatus", "test": "Broth microdilution (NCCLS M38-A) checkerboard assay, A. fumigatus", "type": "cell-based, Aspergillus fumigatus", "conditions": "for FIC: MIC in combination divided by MIC alone", "protocol": "as §1, §2, §3"}, "A. fumigatus CI2": {"test_system": "A. fumigatus CI2", "test": "Broth microdilution (NCCLS M38-A) checkerboard assay, A. fumigatus CI2", "type": "cell-based, Aspergillus fumigatus", "conditions": "for FIC: MIC in combination divided by MIC alone", "protocol": "as §1, §2, §3"}, "A. niger": {"test_system": "A. niger", "test": "Broth microdilution (NCCLS M38-A) checkerboard assay, A. niger", "type": "cell-based", "conditions": "for FIC: MIC in combination divided by MIC alone", "protocol": "as §1, §2, §3"}, "Aspergillus species": {"test_system": "Aspergillus species", "test": "Antifungal activity with Mycograb antibody, summary over the Aspergillus species examined", "type": "cell-based", "conditions": "Mycograb antibody alone; summary of Tables 1-4", "protocol": "as §3"}, "[1]": {"conditions": "agent alone, Table 1, no growth endpoint"}, "[2]": {"conditions": "agent alone, Table 2, ≧50% growth inhibition endpoint"}, "[3]": {"conditions": "agent alone, Table 3, ≧50% growth inhibition endpoint"}, "[4]": {"conditions": "agent alone, Table 4, ≧50% growth inhibition endpoint"}, "[5]": {"conditions": "amphotericin B and Mycograb in combination"}, "[6]": {"conditions": "caspofungin and Mycograb in combination"}, "[7]": {"conditions": "itraconazole and Mycograb in combination"}, "[8]": {"conditions": "voriconazole and Mycograb in combination"}}}
{"molecule": "Mycograb: antibody specific for a fungal hsp90 stress protein epitope (SEQ ID NO: 1), comprising the sequence of SEQ ID NO: 3, expressed in E. coli (protein, Synthetically generated peptide) scFv: HMAEVQLVESGAEVKKPGESLRISCKGSGCIISSYWISWVRQMPGKGLEWMGKIDPGDSYINYSPSFQGHVTISADKSINTAYLQWNSLKASDTAMYYCARGGRDFGDSFDYWGQGTLVTVSSGGGGSGGGGSGGGGSDVVMTQSPSFLSAFVGDRITITCRASSGISRYLAWYQQAPGKAPKLLIYAASTLQTGVPSRFSGSGSGTEFTLTINSLQPEDFATYYCQHLNSYPLTFGGGTKVDIKRAA", "values": [{"measurement": "MIC-0 of each agent, Alone", "setting": "A. flavus; [1]", "result": 512, "unit": "mg/L"}, {"measurement": "MIC-2 of each agent, Alone", "setting": "A. flavus; [2]", "result": 512, "unit": "mg/L"}, {"measurement": "MIC-2 of each agent, Alone", "setting": "A. flavus; [3]", "result": 512, "unit": "mg/L"}, {"measurement": "MIC-2 of each agent, Alone", "setting": "A. flavus; [4]", "result": 512, "unit": "mg/L"}, {"measurement": "MIC-0 of each agent, Combination", "setting": "A. flavus; [5]", "result": 512, "unit": "mg/L"}, {"measurement": "FIC", "setting": "A. flavus; amphotericin B and Mycograb", "result": 1}, {"measurement": "MIC-2 of each agent, Combination", "setting": "A. flavus; [6]", "result": 0.0625, "unit": "mg/L"}, {"measurement": "FIC", "setting": "A. flavus; caspofungin and Mycograb", "result": 0.0001}, {"measurement": "MIC-2 of each agent, Combination", "setting": "A. flavus; [7]", "result": 0.25, "unit": "mg/L"}, {"measurement": "FIC", "setting": "A. flavus; itraconazole and Mycograb", "result": 0.0005}, {"measurement": "MIC-2 of each agent, Combination", "setting": "A. flavus; [8]", "result": 0.25, "unit": "mg/L"}, {"measurement": "FIC", "setting": "A. flavus; voriconazole and Mycograb", "result": 0.0005}, {"measurement": "MIC-0 of each agent, Alone", "setting": "A. terreus; [1]", "result": 512, "unit": "mg/L"}, {"measurement": "MIC-2 of each agent, Alone", "setting": "A. terreus; [2]", "result": 1024, "unit": "mg/L"}, {"measurement": "MIC-2 of each agent, Alone", "setting": "A. terreus; [3]", "result": 1024, "unit": "mg/L"}, {"measurement": "MIC-2 of each agent, Alone", "setting": "A. terreus; [4]", "result": 1024, "unit": "mg/L"}, {"measurement": "MIC-0 of each agent, Combination", "setting": "A. terreus; [5]", "result": 512, "unit": "mg/L"}, {"measurement": "FIC", "setting": "A. terreus; amphotericin B and Mycograb", "result": 1, "unit": "µg/mL"}, {"measurement": "MIC-2 of each agent, Combination", "setting": "A. terreus; [6]", "result": 32, "unit": "mg/L"}, {"measurement": "FIC", "setting": "A. terreus; caspofungin and Mycograb", "result": 0.031, "unit": "µg/mL"}, {"measurement": "MIC-2 of each agent, Combination", "setting": "A. terreus; [7]", "result": 32, "unit": "mg/L"}, {"measurement": "FIC", "setting": "A. terreus; itraconazole and Mycograb", "result": 0.031, "unit": "µg/mL"}, {"measurement": "MIC-2 of each agent, Combination", "setting": "A. terreus; [8]", "result": 0.25, "unit": "mg/L"}, {"measurement": "FIC", "setting": "A. terreus; voriconazole and Mycograb", "result": 0.0002, "unit": "µg/mL"}, {"measurement": "MIC-0 of each agent, Alone", "setting": "A. fumigatus; [1]", "result": 512, "unit": "mg/L"}, {"measurement": "MIC-2 of each agent, Alone", "setting": "A. fumigatus; [2]", "result": 1024, "unit": "mg/L"}, {"measurement": "MIC-2 of each agent, Alone", "setting": "A. fumigatus; [3]", "result": 1024, "unit": "mg/L"}, {"measurement": "MIC-2 of each agent, Alone", "setting": "A. fumigatus; [4]", "result": 1024, "unit": "mg/L"}, {"measurement": "MIC-0 of each agent, Combination", "setting": "A. fumigatus; [5]", "result": 4, "unit": "mg/L"}, {"measurement": "FIC", "setting": "A. fumigatus; amphotericin B and Mycograb", "result": 0.01}, {"measurement": "MIC-2 of each agent, Combination", "setting": "A. fumigatus; [6]", "result": 32, "unit": "mg/L"}, {"measurement": "FIC", "setting": "A. fumigatus; caspofungin and Mycograb", "result": 0.062}, {"measurement": "MIC-2 of each agent, Combination", "setting": "A. fumigatus; [7]", "result": 16, "unit": "mg/L"}, {"measurement": "FIC", "setting": "A. fumigatus; itraconazole and Mycograb", "result": 0.016}, {"measurement": "MIC-2 of each agent, Combination", "setting": "A. fumigatus; [8]", "result": 0.25, "unit": "mg/L"}, {"measurement": "FIC", "setting": "A. fumigatus; voriconazole and Mycograb", "result": 0.0002}, {"measurement": "MIC-0 of each agent, Alone", "setting": "A. fumigatus CI2; [1]", "result": 512, "unit": "mg/L"}, {"measurement": "MIC-2 of each agent, Alone", "setting": "A. fumigatus CI2; [2]", "result": 1024, "unit": "mg/L"}, {"measurement": "MIC-2 of each agent, Alone", "setting": "A. fumigatus CI2; [3]", "result": 1024, "unit": "mg/L"}, {"measurement": "MIC-2 of each agent, Alone", "setting": "A. fumigatus CI2; [4]", "result": 1024, "unit": "mg/L"}, {"measurement": "MIC-0 of each agent, Combination", "setting": "A. fumigatus CI2; [5]", "result": 16, "unit": "mg/L"}, {"measurement": "FIC", "setting": "A. fumigatus CI2; amphotericin B and Mycograb", "result": 0.031}, {"measurement": "MIC-2 of each agent, Combination", "setting": "A. fumigatus CI2; [6]", "result": 16, "unit": "mg/L"}, {"measurement": "FIC", "setting": "A. fumigatus CI2; caspofungin and Mycograb", "result": 0.062}, {"measurement": "MIC-2 of each agent, Combination", "setting": "A. fumigatus CI2; [7]", "result": 8, "unit": "mg/L"}, {"measurement": "FIC", "setting": "A. fumigatus CI2; itraconazole and Mycograb", "result": 0.008}, {"measurement": "MIC-2 of each agent, Combination", "setting": "A. fumigatus CI2; [8]", "result": 0.25, "unit": "mg/L"}, {"measurement": "FIC", "setting": "A. fumigatus CI2; voriconazole and Mycograb", "result": 0.0002}, {"measurement": "MIC-0 of each agent, Alone", "setting": "A. niger; [1]", "result": 512, "unit": "mg/L"}, {"measurement": "MIC-2 of each agent, Alone", "setting": "A. niger; [2]", "result": 256, "unit": "mg/L"}, {"measurement": "MIC-2 of each agent, Alone", "setting": "A. niger; [3]", "result": 16, "unit": "mg/L"}, {"measurement": "MIC-2 of each agent, Alone", "setting": "A. niger; [4]", "result": 16, "unit": "mg/L"}, {"measurement": "MIC-0 of each agent, Combination", "setting": "A. niger; [5]", "result": 4, "unit": "mg/L"}, {"measurement": "FIC", "setting": "A. niger; amphotericin B and Mycograb", "result": 0.01}, {"measurement": "MIC-2 of each agent, Combination", "setting": "A. niger; [6]", "result": 0.0625, "unit": "mg/L"}, {"measurement": "FIC", "setting": "A. niger; caspofungin and Mycograb", "result": 0.0001}, {"measurement": "MIC-2 of each agent, Combination", "setting": "A. niger; [7]", "result": 4, "unit": "mg/L"}, {"measurement": "FIC", "setting": "A. niger; itraconazole and Mycograb", "result": 0.25}, {"measurement": "MIC-2 of each agent, Combination", "setting": "A. niger; [8]", "result": 16, "unit": "mg/L"}, {"measurement": "FIC", "setting": "A. niger; voriconazole and Mycograb", "result": 1}, {"measurement": "Growth inhibition by antibody on its own", "setting": "Aspergillus species", "result": "able to inhibit growth of certain Aspergillus species"}]}
